Consider two substances from patent publication US20230025039.

The test system of series [1] is Cas13b-t3-REPAIR R and H to A in both HEPN domains (numbering not given) (Planctomycetes bacterium isolate B28_G16). In words: cell_activity. The following applies: non-targeting control.
The subject of series [2] is Cas13b-t1-REPAIR R and H to A in both HEPN domains (numbering not given) (Atlantic deep subsurface metagenome). In words: cell_activity. As to conditions: non-targeting control.

Substance “non-targeting editing gRNA (b-t3) ; Cypridina luciferase W85X mRNA” registered an activity (normalized RLU) in series [1] of 0.00368.

Regarding “non-targeting editing gRNA (b-t1) ; Cypridina luciferase W85X mRNA”, in series [2], the activity (normalized RLU) is 0.00795.
